Measured values as given in patent publication US20100080812A1 (ROCHE PALO ALTO, published 2010).
Blank lines part the entries; values can stand above or below the molecule they belong to.

Columns and labels:
[1] = biological target: recombinant human IL-17 (Peprotech #200-17) (human) (UniProt Q16552); test: ELISA, coated IL-17 subtype, antibody 10 µg/ml, OD 405/492 nm
[2] = biological target: recombinant human IL-17 (Peprotech #200-17) (human) (UniProt Q16552); test: cell-based or functional assay
human IL-17E = biological target: T1, human IL-17E (human, UniProt Q9H293 33-177, limits assumed); test: ELISA, coated IL-17 subtype, antibody 10 µg/ml, OD 405/492 nm
T1 sequence (looked up): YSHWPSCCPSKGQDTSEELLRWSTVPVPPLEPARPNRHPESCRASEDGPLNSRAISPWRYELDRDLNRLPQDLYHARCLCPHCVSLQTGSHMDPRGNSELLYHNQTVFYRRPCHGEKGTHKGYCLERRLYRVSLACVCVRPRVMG

human IL-17F [3] = biological target: T2, human IL-17F (human, UniProt Q96PD4 31-163, limits assumed); test: as above
T2 sequence (looked up): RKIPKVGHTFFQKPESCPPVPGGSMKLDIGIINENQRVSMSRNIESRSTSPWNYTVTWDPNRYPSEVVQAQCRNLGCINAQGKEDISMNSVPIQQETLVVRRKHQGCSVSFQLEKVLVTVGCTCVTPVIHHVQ

human IL-17B = biological target: T3, human IL-17B (human, UniProt Q9UHF5 21-180, limits assumed); test: as above
T3 sequence (looked up): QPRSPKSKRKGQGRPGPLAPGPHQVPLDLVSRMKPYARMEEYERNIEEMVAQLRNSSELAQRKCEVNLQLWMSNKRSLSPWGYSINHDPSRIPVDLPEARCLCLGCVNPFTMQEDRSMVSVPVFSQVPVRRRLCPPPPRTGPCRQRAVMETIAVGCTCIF

human IL-17D = biological target: T4, human IL-17D (human, UniProt Q8TAD2 18-202, limits assumed); test: as above
T4 sequence (looked up): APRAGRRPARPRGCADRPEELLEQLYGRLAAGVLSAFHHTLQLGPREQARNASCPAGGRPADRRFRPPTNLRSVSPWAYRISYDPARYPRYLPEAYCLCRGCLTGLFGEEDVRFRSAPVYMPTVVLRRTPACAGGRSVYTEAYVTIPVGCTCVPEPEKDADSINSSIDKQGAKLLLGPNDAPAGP

human IL-17C [4] = biological target: T5, human IL-17C (human, UniProt Q9P0M4 19-197, limits assumed); test: as above
T5 sequence (looked up): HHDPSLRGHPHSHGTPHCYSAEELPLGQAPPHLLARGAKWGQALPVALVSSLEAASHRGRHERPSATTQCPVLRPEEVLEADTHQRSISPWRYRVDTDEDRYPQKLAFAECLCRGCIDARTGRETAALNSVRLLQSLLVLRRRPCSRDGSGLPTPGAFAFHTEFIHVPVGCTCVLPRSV

[5] = biological target: cynomolgus IL-17A (cynomolgus monkey); test: cell-based or functional assay
human IL-17F [6] = biological target: T2, human IL-17F; test: ELISA on immobilized IL-17 variant
human IL-17C [7] = biological target: T5, human IL-17C; test: ELISA on immobilized IL-17 variant
[8] = biological target: T6, recombinant human IL-17 (Peprotech #200-17) (human, UniProt Q16552 20-155); test: cell-based or functional assay
T6 sequence (looked up): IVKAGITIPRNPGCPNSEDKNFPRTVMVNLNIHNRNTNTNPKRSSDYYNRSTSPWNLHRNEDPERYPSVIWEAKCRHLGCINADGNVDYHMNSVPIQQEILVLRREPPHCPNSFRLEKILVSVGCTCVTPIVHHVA

cynomolgus IL-17A = biological target: T7, cynomolgus IL-17A (cynomolgus monkey, UniProt A0A2K5TTB0 24-155); test: cell-based or functional assay
T7 sequence: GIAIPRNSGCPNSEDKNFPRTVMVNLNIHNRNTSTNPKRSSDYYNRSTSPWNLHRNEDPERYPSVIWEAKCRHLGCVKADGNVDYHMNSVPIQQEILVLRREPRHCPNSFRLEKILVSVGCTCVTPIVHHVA

[9] = biological target: T6, recombinant human IL-17 (Peprotech …); test: ELISA, coated IL-17 subtype, antibody 10 µg/ml, OD 405/492 nm
[10] = biological target: T6, recombinant human IL-17 (Peprotech …); test: cell-based or functional assay; remark: listed apart in the source

Binding (IL-17A binding set as 100) (% (IL-17A binding set as 100)) [1]: 100
IL-6 Neutralization IC50 [2]: 5.5 nM
IL-8 Neutralization IC50 [2]: 5.5 nM
Binding (IL-17A binding set as 100) (% (IL-17A binding set as 100)) (human IL-17E): 0
Binding (IL-17A binding set as 100) (% (IL-17A binding set as 100)) (human IL-17F [3]): 0
Binding (IL-17A binding set as 100) (% (IL-17A binding set as 100)) (human IL-17B): 0
Binding (IL-17A binding set as 100) (% (IL-17A binding set as 100)) (human IL-17D): 0
Binding (IL-17A binding set as 100) (% (IL-17A binding set as 100)) (human IL-17C [4]): 0
Molecule: MAB 317 of R&D Systems (antibody)

Binding (IL-17A binding set as 100) (% (IL-17A binding set as 100)) [1]: 100
Binding (IL-17A binding set as 100) (% (IL-17A binding set as 100)) (human IL-17E): 5
Binding (IL-17A binding set as 100) (% (IL-17A binding set as 100)) (human IL-17F [3]): 5
Binding (IL-17A binding set as 100) (% (IL-17A binding set as 100)) (human IL-17B): 7
Binding (IL-17A binding set as 100) (% (IL-17A binding set as 100)) (human IL-17D): 6
Binding (IL-17A binding set as 100) (% (IL-17A binding set as 100)) (human IL-17C [4]): 97
Molecule: Mab 16-7178-85 of eBioscience (antibody)

Binding (IL-17A binding set as 100) (% (IL-17A binding set as 100)) [1]: 100
IL-6 Neutralization IC50 (nM) (using 100 ng/ml IL-17A) [2]: 5 nM
IL-8 Neutralization IC50 (nM) (using 100 ng/ml IL-17A) [2]: 4.2 nM
IL-6 Neutralization IC50 (nM) (using 100 ng/ml IL-17A) [5]: > 10 nM
IL-8 Neutralization IC50 (nM) (using 100 ng/ml IL-17A) [5]: > 10 nM
Binding (IL-17A binding set as 100) (% (IL-17A binding set as 100)) (human IL-17E): 3
Binding (IL-17A binding set as 100) (% (IL-17A binding set as 100)) (human IL-17F [3]): 62
Binding (IL-17A binding set as 100) (% (IL-17A binding set as 100)) (human IL-17B): 2
Binding (IL-17A binding set as 100) (% (IL-17A binding set as 100)) (human IL-17D): 0
Binding (IL-17A binding set as 100) (% (IL-17A binding set as 100)) (human IL-17C [4]): 2
Molecule: NVP-AIN-497 (WO 2006013107) (antibody)

IL-6 Neutralization IC50 [8]: 1 nM
IL-8 Neutralization IC50 [8]: 1 nM
IL-6 Neutralization IC50 (nM) (using 100 ng/ml IL-17A) (cynomolgus IL-17A): 0.7 nM
IL-8 Neutralization IC50 (nM) (using 100 ng/ml IL-17A) (cynomolgus IL-17A): 0.6 nM
Binding (IL-17A binding set as 100) (human IL-17E): 1 % (IL-17A binding set as 100)
Binding (IL-17A binding set as 100) (human IL-17F [3]): 0 % (IL-17A binding set as 100)
Binding (IL-17A binding set as 100) (human IL-17B): 0 % (IL-17A binding set as 100)
Binding (IL-17A binding set as 100) (human IL-17D): 0 % (IL-17A binding set as 100)
Binding (IL-17A binding set as 100) [9]: 100 % (IL-17A binding set as 100)
Binding (IL-17A binding set as 100) (human IL-17C [4]): 0 % (IL-17A binding set as 100)
IL-6 Neutralization IC50 (nM) (using 100 ng/ml IL-17A) [10]: 2.1 nM
IL-8 Neutralization IC50 (nM) (using 100 ng/ml IL-17A) [10]: 1.6 nM
B1: Mab 106 (antibody, V domains shown)
VH: EVQLVESGGGLVQPGGSLRLSCAASGFTFSDYTMLWVRQAPGKGLEWVAIIKSGGSYSYYPDSVKGRFTISRDNAKNSLYLQMNSLRAEDTAVYYCARDGDYGSSYGAMDYWGQGTLVTVSS
VL: DIQMTQSPSSLSASVGDRVTITCRASQDINSYLSWFQQKPGKAPKSLIYRANRLVDGVPSRFSGSGSGQDYSLTISSLQPEDFATYYCLQYDAFPPYTFGQGTKLEIK
notes: Humanized version of 3C1; Only the variable domains are tied to it; also called Mab K106
binding result (human IL-17F [6]): no binding (tested: S/N ratio lower than 7:1)
binding result (human IL-17C [7]): no binding (tested: S/N ratio lower than 7:1)
